Test results as given in PMC1976250 (Journal of neurochemistry, 2007).
Each block holds one binder with its values, some of them ahead of it.

What was measured:
[1] = target: T1, GST-GluR2 C-terminus (GST-R2C) (UniProt P19491 834-883); assay: pull-down
T1 chain (looked up): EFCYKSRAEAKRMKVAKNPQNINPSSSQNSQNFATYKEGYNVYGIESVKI

[2] = target: GST-PICK1 (protein interacting with C-kinase 1) (UniProt Q9EP80 1-416); assay: pull-down
GST-PICK1 (protein interacting with C-kinase 1), sequence (Q9EP80 whole entry): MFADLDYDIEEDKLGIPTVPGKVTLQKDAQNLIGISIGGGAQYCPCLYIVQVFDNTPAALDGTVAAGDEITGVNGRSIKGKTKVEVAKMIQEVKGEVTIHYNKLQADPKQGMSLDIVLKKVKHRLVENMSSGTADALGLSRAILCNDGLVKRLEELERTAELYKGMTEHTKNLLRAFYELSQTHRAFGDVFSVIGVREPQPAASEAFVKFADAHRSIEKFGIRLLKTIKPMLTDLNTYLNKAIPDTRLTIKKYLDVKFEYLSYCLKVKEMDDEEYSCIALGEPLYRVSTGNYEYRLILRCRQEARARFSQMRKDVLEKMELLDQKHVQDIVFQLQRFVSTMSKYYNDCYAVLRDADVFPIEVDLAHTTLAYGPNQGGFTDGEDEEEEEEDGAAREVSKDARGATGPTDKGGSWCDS

binding at 15 μmol/L free Ca2+ relative to zero free Ca2+ [1]: 85%
B1: his6D142A NSF (enzyme, UniProt P18708 1-744, looked up)
chain: MAGRSMQAARCPTDELSLSNCAVVSEKDYQSGQHVIVRTSPNHKYIFTLRTHPSVVPGSVAFSLPQRKWAGLSIGQEIEVALYSFDKAKQCIGTMTIEIDFLQKKNIDSNPYDTDKMAAEFIQQFNNQAFSVGQQLVFSFNAKLFGLLVKDIEAMDPSILKGEPASGKRQKIEVGLVVGNSQVAFEKAENSSLNLIGKAKTKENRQSIINPDWNFEKMGIGGLDKEFSDIFRRAFASRVFPPEIVEQMGCKHVKGILLYGPPGCGKTLLARQIGKMLNAREPKVVNGPEILNKYVGESEANIRKLFADAEEEQRRLGANSGLHIIIFDEIDAICKQRGSMAGSTGVHDTVVNQLLSKIDGVEQLNNILVIGMTNRPDLIDEALLRPGRLEVKMEIGLPDEKGRLQILHIHTARMRGHQLLSADVDIKELAVETKNFSGAELEGLVRAAQSTAMNRHIKASTKVEVDMEKAESLQVTRGDFLASLENDIKPAFGTNQEDYASYIMNGIIKWGDPVTRVLDDGELLVQQTKNSDRTPLVSVLLEGPPHSGKTALAAKIAEESNFPFIKICSPDKMIGFSETAKCQAMKKIFDDAYKSQLSCVVVDDIERLLDYVPIGPRFSNLVLQALLVLLKKAPPQGRKLLIIGTTSRKDVLQEMEMLNAFSTTIHVPNIATGEQLLEALELLGNFKDKERTTIAQQVKGKKVWIGIKKLLMLIEMSLQMDPEYRVRKFLALLREEGASPLDFD

fold increase in binding at 15 μmol/L free Ca2+ compared with zero free Ca2+ [2]: ~7 fold
B2: his6β-SNAP (β soluble NSF attachment protein) (natural protein, UniProt P81126 1-298, looked up)
chain: MDNAGKEREAVQLMAEAEKRVKASHSFLRGLFGGNTRIEEACEMYTRAANMFKMAKNWSAAGNAFCQAAKLHMQLQSKHDSATSFVDAGNAYKKADPQEAINCLNAAIDIYTDMGRFTIAAKHHITIAEIYETELVDIEKAIAHYEQSADYYKGEESNSSANKCLLKVAAYAAQLEQYQKAIEIFEQIGANTMDNPLLKYSAKDYFFKAALCHFIVDELNAKLALEKYEEMFPAFTDSRECKLLKKLLEAHEEQNSEAYTEAVKEFDSISRLDQWLTTMLLRIKKSIQGDGEGDGDLK
